Results taken from patent US20260242478A1 (published 2026).
Where no end group is shown, it is not given here.

B1: Phage-426 clonal phage peptide MFLCPSAMWNRCFY (peptide)
peptide: MFLCPSAMWNRCFY
notes: tested as crude clonal phage supernatant
B2: Phage-427 clonal phage peptide VILCPTTMWNRCFH (peptide)
peptide: VILCPTTMWNRCFH
notes: as for B1
B3: Phage-438 clonal phage peptide MDWCPMSRWAFCFD (peptide)
peptide: MDWCPMSRWAFCFD
notes: as for B1
B4: Phage-432 clonal phage peptide IDWCPIIQGLPCFA (peptide)
peptide: IDWCPIIQGLPCFA
notes: as for B1
B5: Phage-431 clonal phage peptide MAWCPADQWHECFN (peptide)
peptide: MAWCPADQWHECFN
notes: as for B1
B6: Phage-424 clonal phage peptide ITQCPSTMWNRCSV (peptide)
peptide: ITQCPSTMWNRCSV
notes: as for B1
B7: Phage-436 clonal phage peptide MDWCPRDRWADCFN (peptide)
peptide: MDWCPRDRWADCFN
notes: as for B1
B8: Phage-437 clonal phage peptide MDWCPVDRWADCFN (peptide)
peptide: MDWCPVDRWADCFN
notes: as for B1
B9: Phage-440 clonal phage peptide MDWCPRDRWVDCFN (peptide)
peptide: MDWCPRDRWVDCFN
notes: as for B1
B10: Phage-422 clonal phage peptide MYWCPINMWDYCYA (peptide)
peptide: MYWCPINMWDYCYA
notes: as for B1
B11: Phage-425 clonal phage peptide MDLCPTAMWNRCFY (peptide)
peptide: MDLCPTAMWNRCFY
notes: as for B1
B12: Phage-418 clonal phage peptide MYWCPKYMWSECFA (peptide)
peptide: MYWCPKYMWSECFA
notes: as for B1
B13: Phage-435 clonal phage peptide MDWCPRDRWVDCYA (peptide)
peptide: MDWCPRDRWVDCYA
notes: as for B1
B14: Phage-433 clonal phage peptide MAWCPWAQFDECLA (peptide)
peptide: MAWCPWAQFDECLA
notes: as for B1
B15: Phage-428 clonal phage peptide MNWCPSTMWNRCLT (peptide)
peptide: MNWCPSTMWNRCLT
notes: as for B1
B16: Phage-417 clonal phage peptide IYWCPTAMWNRCSA (peptide)
peptide: IYWCPTAMWNRCSA
notes: as for B1
B17: Phage-434 clonal phage peptide IVWCPTTQWNRCAT (peptide)
peptide: IVWCPTTQWNRCAT
notes: as for B1
B18: Phage-441 clonal phage peptide MDWCPRDRWDDCFF (peptide)
peptide: MDWCPRDRWDDCFF
notes: as for B1
B19: Phage-423 clonal phage peptide INLCPTPMWNRCWL (peptide)
peptide: INLCPTPMWNRCWL
notes: as for B1
B20: Phage-439 clonal phage peptide MDWCPRDRWDVCFA (peptide)
peptide: MDWCPRDRWDVCFA
notes: as for B1

Molecular target: Ab-15
Experiment: binding ELISA: biotinylated peptide on neutravidin plate, Ab-15 titrated

Binder | EC50 [nM]
ADWCPRDLWVHCFA (cysteine pairing not given here; also: biotinylated, site not given here, CD28 peptide mask) [Peptide-52] | 75.9
GDWCPRDLWVHCFA (cysteine pairing not given here; also: biotinylated, site not given here, CD28 peptide mask) [Peptide-58] | 73.9
NDWCPRDLWVHCFA (cysteine pairing not given here; also: biotinylated, site not given here, CD28 peptide mask) [Peptide-54] | 84.3
DDWCPRDLWVHCFA (cysteine pairing not given here; also: biotinylated, site not given here, CD28 peptide mask) [Peptide-55] | 86.8
HDWCPRDLWVHCFA (cysteine pairing not given here; also: biotinylated, site not given here, CD28 peptide mask) [Peptide-59] | 45.4

Molecular target: Ab-15
Experiment: BLI (Octet): sensor loaded with 200 nM biotinylated peptide, 100 nM Ab-15;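 also: binding association and dissociation tracked in real time, fitted to a 1:1 binding model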

Binder | Octet signal | t1/2 [min]
ADWCPRDLWVHCFA (cysteine pairing not given here; also: biotinylated, site not given here, CD28 peptide mask) [Peptide-52] | 0.7 | 3.1
GDWCPRDLWVHCFA (cysteine pairing not given here; also: biotinylated, site not given here, CD28 peptide mask) [Peptide-58] | 0.479 | 3.9
NDWCPRDLWVHCFA (cysteine pairing not given here; also: biotinylated, site not given here, CD28 peptide mask) [Peptide-54] | 0.434 | 4
DDWCPRDLWVHCFA (cysteine pairing not given here; also: biotinylated, site not given here, CD28 peptide mask) [Peptide-55] | 0.461 | 4.2
HDWCPRDLWVHCFA (cysteine pairing not given here; also: biotinylated, site not given here, CD28 peptide mask) [Peptide-59] | 0.737 | 3

Molecular target: T1, Anti-CD28 scFv (VH - linker 1 - VL) (biotinylated (site not stated))
T1 construct: Biotinylated and captured on neutravidin-coated plates in the phage panning ELISA
Experiment: phage ELISA; biotinylated anti-CD28 scFv on neutravidin plate, clonal phage supernatant, anti-M13-HRP detection;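 also: before phage addition, wells were pretreated with soluble CD28 protein in blocking buffer, or with blocking buffer only as the comparison, then phage were added without washing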

Binder | CD28 scFv signal
B1 | 0.094
B2 | 0.072
B3 | 1
B4 | 0.368
B5 | 1.84
B6 | 0.098
B7 | 1.35
B8 | 1.16
B9 | 0.911
B10 | 0.109
B11 | 0.097
B12 | 0.741
B13 | 1.48
B14 | 0.071
B15 | 0.065
B16 | 0.817
B17 | 0.067
B18 | 0.899
B19 | 0.103
B20 | 0.924

Molecular target: Ab-15
Experiment: competition ELISA: peptide titrated against 1 nM Ab-15; competitor plate-bound CD28

Binder | IC50 [nM]
ADWCPRDLWVHCFA (cysteine pairing not given here; also: biotinylated, site not given here, CD28 peptide mask) [Peptide-52] | 2000
GDWCPRDLWVHCFA (cysteine pairing not given here; also: biotinylated, site not given here, CD28 peptide mask) [Peptide-58] | 7060
NDWCPRDLWVHCFA (cysteine pairing not given here; also: biotinylated, site not given here, CD28 peptide mask) [Peptide-54] | 5030
DDWCPRDLWVHCFA (cysteine pairing not given here; also: biotinylated, site not given here, CD28 peptide mask) [Peptide-55] | 4460
HDWCPRDLWVHCFA (cysteine pairing not given here; also: biotinylated, site not given here, CD28 peptide mask) [Peptide-59] | 2180

Molecular target: T2, Anti-PSMA Fab (SEQ ID NOs: 19, 20)
T2 construct: Biotinylated and captured on neutravidin coated plates in the phage ELISA; also called 006 PSMA Fab
Experiment: phage binding ELISA; Fab-coated wells pre-incubated with PSMA antigen (competitor: PSMA), then clonal phage, anti-M13 HRP detection

Binder | Anti-PSMA Fab signal in the presence of PSMA
FCGWMDGDVFWFCG (tested as crude phage supernatant) [Phage-1733 (clonal phage displaying the peptide of SEQ ID NO: 2017)] | 0.145
SIPCIPRDWLCPIK (tested as crude phage supernatant) [Phage-1725 (clonal phage displaying the peptide of SEQ ID NO: 2009)] | 0.239
ICQWIGATNAWVCY (tested as crude phage supernatant) [Phage-1726 (clonal phage displaying the peptide of SEQ ID NO: 2010)] | 0.326
PLCGTEEVWWECRL (tested as crude phage supernatant) [Phage-1728 (clonal phage displaying the peptide of SEQ ID NO: 2012)] | 0.0694
IRCVGEGHDLVCIF (tested as crude phage supernatant) [Phage-1724 (clonal phage displaying the peptide of SEQ ID NO: 2008)] | 0.081
FGHCAGSPVFCAYW (tested as crude phage supernatant) [Phage-1730 (clonal phage displaying the peptide of SEQ ID NO: 2014)] | 0.054
HLFCWEGSDRCAWV (tested as crude phage supernatant) [Phage-1727 (clonal phage displaying the peptide of SEQ ID NO: 2011)] | 0.0753
NCWWHDFRAGHVVC (tested as crude phage supernatant) [Phage-1723 (clonal phage displaying the peptide of SEQ ID NO: 2007)] | 0.0972
SCGWLRGEEFGWWC (tested as crude phage supernatant) [Phage-1739 (clonal phage displaying the peptide of SEQ ID NO: 2023)] | 0.0625
ACHSLVLKHHLQKC (tested as crude phage supernatant) [Phage-1738 (clonal phage displaying the peptide of SEQ ID NO: 2022)] | 0.0624
PDCVYHSFWGYSCR (tested as crude phage supernatant) [Phage-1740 (clonal phage displaying the peptide of SEQ ID NO: 2024)] | 0.0641
FCNWVDGDVWVVCK (tested as crude phage supernatant) [Phage-1734 (clonal phage displaying the peptide of SEQ ID NO: 2018)] | 0.0607
HCKFHDYHSWYMCY (tested as crude phage supernatant) [Phage-1737 (clonal phage displaying the peptide of SEQ ID NO: 2021)] | 0.117
NCFFAADIHWNFCT (tested as crude phage supernatant) [Phage-1731 (clonal phage displaying the peptide of SEQ ID NO: 2015)] | 0.18
MEYCSFHRFTCVLW (tested as crude phage supernatant) [Phage-1736 (clonal phage displaying the peptide of SEQ ID NO: 2020)] | 0.12
FCQWIEATNAWLCY (tested as crude phage supernatant) [Phage-1732 (clonal phage displaying the peptide of SEQ ID NO: 2016)] | 0.119
FVPCIPSHWLCPIW (tested as crude phage supernatant) [Phage-1741 (clonal phage displaying the peptide of SEQ ID NO: 2037)] | 0.292
EGCLTLVDGRAWCW (tested as crude phage supernatant) [Phage-1735 (clonal phage displaying the peptide of SEQ ID NO: 2019)] | 0.0521
NAHCWLWVPAHCRV (tested as crude phage supernatant) [Phage-1729 (clonal phage displaying the peptide of SEQ ID NO: 2013)] | 0.0672

Molecular target: anti-CD28 Fab
Experiment: competition ELISA, peptide titrated 0-100 uM against 1 nM anti-CD28 Fab, plate-bound CD28 as competitor

Binder | IC50 [nM]
SCAAGASYAWPACL [Peptide-105] | 13000
SCAAGASYAWPYCA [Peptide-106] | 76400

Molecular target: T1, Anti-CD28 scFv (VH - linker 1 - VL)
Experiment: phage ELISA; biotinylated anti-CD28 scFv on neutravidin plate, wells pre-incubated with soluble CD28 as competitor, anti-M13-HRP detection

Binder | CD28 scFv signal in presence of CD28
B1 | 0.114
B2 | 0.084
B3 | 0.115
B4 | 0.065
B5 | 0.456
B6 | 0.108
B7 | 0.08
B8 | 0.315
B9 | 0.132
B10 | 0.088
B11 | 0.084
B12 | 0.099
B13 | 0.403
B14 | 0.078
B15 | 0.07
B16 | 0.073
B17 | 0.083
B18 | 0.183
B19 | 0.101
B20 | 0.096

Molecular target: T2, Anti-PSMA Fab (SEQ ID NOs: 19, 20)
Experiment: phage binding ELISA; biotinylated anti-PSMA Fab captured on neutravidin plate, clonal phage supernatant, anti-M13 HRP detection

Binder | Anti-PSMA Fab (SEQ ID NOs: 19, 20) signal
FCGWMDGDVFWFCG (tested as crude phage supernatant) [Phage-1733 (clonal phage displaying the peptide of SEQ ID NO: 2017)] | 0.428
SIPCIPRDWLCPIK (tested as crude phage supernatant) [Phage-1725 (clonal phage displaying the peptide of SEQ ID NO: 2009)] | 1.8
ICQWIGATNAWVCY (tested as crude phage supernatant) [Phage-1726 (clonal phage displaying the peptide of SEQ ID NO: 2010)] | 1.82
PLCGTEEVWWECRL (tested as crude phage supernatant) [Phage-1728 (clonal phage displaying the peptide of SEQ ID NO: 2012)] | 1.57
IRCVGEGHDLVCIF (tested as crude phage supernatant) [Phage-1724 (clonal phage displaying the peptide of SEQ ID NO: 2008)] | 2.12
FGHCAGSPVFCAYW (tested as crude phage supernatant) [Phage-1730 (clonal phage displaying the peptide of SEQ ID NO: 2014)] | 1.06
HLFCWEGSDRCAWV (tested as crude phage supernatant) [Phage-1727 (clonal phage displaying the peptide of SEQ ID NO: 2011)] | 1.4
NCWWHDFRAGHVVC (tested as crude phage supernatant) [Phage-1723 (clonal phage displaying the peptide of SEQ ID NO: 2007)] | 2.05
SCGWLRGEEFGWWC (tested as crude phage supernatant) [Phage-1739 (clonal phage displaying the peptide of SEQ ID NO: 2023)] | 0.891
ACHSLVLKHHLQKC (tested as crude phage supernatant) [Phage-1738 (clonal phage displaying the peptide of SEQ ID NO: 2022)] | 1.18
PDCVYHSFWGYSCR (tested as crude phage supernatant) [Phage-1740 (clonal phage displaying the peptide of SEQ ID NO: 2024)] | 0.583
FCNWVDGDVWVVCK (tested as crude phage supernatant) [Phage-1734 (clonal phage displaying the peptide of SEQ ID NO: 2018)] | 0.51
HCKFHDYHSWYMCY (tested as crude phage supernatant) [Phage-1737 (clonal phage displaying the peptide of SEQ ID NO: 2021)] | 1.58
NCFFAADIHWNFCT (tested as crude phage supernatant) [Phage-1731 (clonal phage displaying the peptide of SEQ ID NO: 2015)] | 1.48
MEYCSFHRFTCVLW (tested as crude phage supernatant) [Phage-1736 (clonal phage displaying the peptide of SEQ ID NO: 2020)] | 1.74
FCQWIEATNAWLCY (tested as crude phage supernatant) [Phage-1732 (clonal phage displaying the peptide of SEQ ID NO: 2016)] | 1.06
FVPCIPSHWLCPIW (tested as crude phage supernatant) [Phage-1741 (clonal phage displaying the peptide of SEQ ID NO: 2037)] | 1.05
EGCLTLVDGRAWCW (tested as crude phage supernatant) [Phage-1735 (clonal phage displaying the peptide of SEQ ID NO: 2019)] | 1.05
NAHCWLWVPAHCRV (tested as crude phage supernatant) [Phage-1729 (clonal phage displaying the peptide of SEQ ID NO: 2013)] | 1.35
